Test results: patent publication US20060177894A1 (published 2006)
Changes are numbered by the printed parent chain. Names may count otherwise.

B1: hCG-αK91E (ligand)
chain 1: not shown
chain 2: SKEPLRPRCRPINATLAVEKEGCPVCITVNTTICAGYCPTMTRVLQGVLPALPQVVCNYRDVRFESIRLPGCPRGVNPVVSYAVALSCQCALCRRSTTDCGGPKDHPLTCDDPRFQDSSSSKAPPPSLPSPSRLPGPSDTPILPQ
notes: mature; heterodimer from COS-7 medium; also called αK91E+hCGβ
B2: αR42C + hCGβ-S138C (ligand)
chain 1: not shown
chain 2: B1 chain 2 with S138C
notes: mature; disulfide αCys42-βCys138
B3: αV49C + β (ligand)
chain 1: not shown
chain 2: B1 chain 2
notes: mature; heterodimer from COS-7 medium; also called hCG-αV49C
B4: αT46C + hCGβ-S138C (ligand)
chain 1: not shown
chain 2: B1 chain 2 with S138C
notes: mature; disulfide αCys46-βCys138
B5: αK44C + β (ligand)
chain 1: not shown
chain 2: B1 chain 2
notes: mature; heterodimer from COS-7 medium; also called hCG-αK44C
B6: αM47C + hCGβ-S138C (ligand)
chain 1: not shown
chain 2: B1 chain 2 with S138C
notes: mature; disulfide αCys47-βCys138
B7: αL48C + hCGβ-S138C (ligand)
chain 1: not shown
chain 2: B1 chain 2 with S138C
notes: mature; disulfide αCys48-βCys138; also called hCGβS138C+αL48C
B8: αS43C + β (ligand)
chain 1: not shown
chain 2: B1 chain 2
notes: mature; heterodimer from COS-7 medium; also called hCG-αS43C
B9: αL48C + β (ligand)
chain 1: not shown
chain 2: B1 chain 2
notes: mature; heterodimer from COS-7 medium; also called hCG-αL48C
B10: αV49C + hCGβ-S138C (ligand)
chain 1: not shown
chain 2: B1 chain 2 with S138C
notes: mature; disulfide αCys49-βCys138
B11: αT86C + β (ligand)
chain 1: not shown
chain 2: B1 chain 2
notes: mature; heterodimer from COS-7 medium; also called hCG-αT86C
B12: αQ50C + hCGβ-S138C (ligand)
chain 1: not shown
chain 2: B1 chain 2 with S138C
B13: αS43C + hCGβ-S138C (ligand)
chain 1: not shown
chain 2: B1 chain 2 with S138C
notes: mature; disulfide αCys43-βCys138
B14: αK45C + hCGβ-S138C (ligand)
chain 1: not shown
chain 2: B1 chain 2 with S138C
notes: mature; disulfide αCys45-βCys138
B15: αK45C + β (ligand)
chain 1: not shown
chain 2: B1 chain 2
notes: mature; heterodimer from COS-7 medium; also called hCG-αK45C
B16: αM47C + β (ligand)
chain 1: not shown
chain 2: B1 chain 2
notes: mature; heterodimer from COS-7 medium; also called hCG-αM47C
B17: αY88C + β (ligand)
chain 1: not shown
chain 2: B1 chain 2
notes: mature; heterodimer from COS-7 medium; also called hCG-αY88C
B18: αK44C + hCGβ-S138C (ligand)
chain 1: not shown
chain 2: B1 chain 2 with S138C
notes: mature; disulfide αCys44-βCys138
B19: αS92C + β (ligand)
chain 1: not shown
chain 2: B1 chain 2
notes: mature; heterodimer from COS-7 medium; also called hCG-αS92C
B20: hCG-αK44E, K45Q (ligand)
alpha: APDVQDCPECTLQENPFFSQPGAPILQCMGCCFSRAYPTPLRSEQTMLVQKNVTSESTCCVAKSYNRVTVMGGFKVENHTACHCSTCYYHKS
beta: B1 chain 2
modifications: Glycosylated heterodimer secreted by COS-7 cells; no engineered intersubunit disulfide.
notes: heterodimer from COS-7 medium; also called αK44E, K45Q+hCGβ
B21: αR42C + β (ligand)
chain 1: not shown
chain 2: B1 chain 2
notes: mature; heterodimer from COS-7 medium; also called hCG-αR42C
B22: αS92C + hCGβ-S138C (ligand)
chain 1: not shown
chain 2: B1 chain 2 with S138C
notes: mature; disulfide αCys92-βCys138
B23: αH90C + hCGβ-S138C (ligand)
chain 1: not shown
chain 2: B1 chain 2 with S138C
notes: mature; disulfide αCys90-βCys138
B24: αQ50C + β (ligand)
chain 1: not shown
chain 2: B1 chain 2
notes: mature; heterodimer from COS-7 medium; also called hCG-αQ50C
B25: αH90C + β (ligand)
chain 1: not shown
chain 2: B1 chain 2
notes: mature; heterodimer from COS-7 medium; also called hCG-αH90C
B26: hCG-αK91M (ligand)
chain 1: not shown
chain 2: B1 chain 2
notes: mature; heterodimer from COS-7 medium; also called αK91M+hCGβ
B27: αT46C + β (ligand)
chain 1: not shown
chain 2: B1 chain 2
notes: mature; heterodimer from COS-7 medium; also called hCG-αT46C
B28: αK91C + β (ligand)
chain 1: not shown
chain 2: B1 chain 2
notes: mature; heterodimer from COS-7 medium; also called hCG-αK91C
B29: hCG-αCTδ116/135,138C + hCG β-subunit analog with cysteine in place of Asp99 (ligand)
chain 1: not shown
chain 2: B1 chain 2 with N77P, P78N, D99C
notes: also called knob at β-subunit residue 99
B30: hCG-αCTδ116/135,138C + hCG β-subunit analog with cysteine in place of Arg95 (ligand)
chain 1: not shown
chain 2: B1 chain 2 with N77P, P78N, R95C
notes: also called knob at β-subunit residue 95
B31: hCG-αK44A (ligand)
chain 1: not shown
chain 2: B1 chain 2
notes: mature; heterodimer from COS-7 medium; also called αK44A+hCGβ
B32: αV53C + β (ligand)
chain 1: not shown
chain 2: B1 chain 2
notes: mature; heterodimer from COS-7 medium; also called hCG-αV53C
B33: hCG-αM47A (ligand)
chain 1: not shown
chain 2: B1 chain 2
notes: mature; heterodimer from COS-7 medium
B34: αK91C + hCGβ-S138C (ligand)
chain 1: not shown
chain 2: B1 chain 2 with S138C
notes: mature; disulfide αCys91-βCys138
B35: αS64C/hCG-βS138C (ligand)
chain 1: not shown
chain 2: B1 chain 2 with S138C
notes: mature; disulfide αCys64-βCys138; also called hCGβS138C+αS64C
B36: αN52C + hCGβ-S138C (ligand)
chain 1: not shown
chain 2: B1 chain 2 with S138C
notes: mature; disulfide αCys52-βCys138; lacks the αAsn52 oligosaccharide

target: T1, rat lutropin receptor (LHR) (rat, UniProt P16235 27-700); experiment: LHR binding assay
T1 construct: whole, on cells; also called LH receptor
T1 sequence (P16235 27-700): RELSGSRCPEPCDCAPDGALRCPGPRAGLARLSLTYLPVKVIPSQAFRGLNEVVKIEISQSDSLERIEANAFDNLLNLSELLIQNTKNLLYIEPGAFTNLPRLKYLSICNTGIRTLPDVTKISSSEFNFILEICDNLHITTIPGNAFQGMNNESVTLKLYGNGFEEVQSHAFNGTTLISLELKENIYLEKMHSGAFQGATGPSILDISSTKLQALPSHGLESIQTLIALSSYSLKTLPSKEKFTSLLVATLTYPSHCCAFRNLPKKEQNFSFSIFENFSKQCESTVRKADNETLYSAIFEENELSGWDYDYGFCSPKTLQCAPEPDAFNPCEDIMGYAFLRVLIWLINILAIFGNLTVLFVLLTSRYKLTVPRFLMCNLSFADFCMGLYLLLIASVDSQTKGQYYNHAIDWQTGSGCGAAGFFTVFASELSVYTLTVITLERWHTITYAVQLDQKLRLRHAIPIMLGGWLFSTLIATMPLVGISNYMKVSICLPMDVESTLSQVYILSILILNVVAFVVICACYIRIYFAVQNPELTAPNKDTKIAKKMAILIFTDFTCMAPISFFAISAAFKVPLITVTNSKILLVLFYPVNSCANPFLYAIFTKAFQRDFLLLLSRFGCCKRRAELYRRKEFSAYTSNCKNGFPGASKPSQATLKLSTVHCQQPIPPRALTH

fold lower affinity than hCG [fold] | Binder
~10 | B1

target: T1, rat lutropin receptor (LHR); experiment: cell-based or functional assay

Signal transduction potency (cAMP accumulation), acid-stable analog | Signal Transduction potency (cAMP accumulation) | Binder
332 % of hCG | – | B2
– | 1.1 % of hCG | B1
– | 133 % of hCG | B3
52 % of hCG | – | B4
– | 97 % of hCG | B5
2.4 % of hCG | – | B6
99 % of hCG | – | B7
– | 74 % of hCG | B8
– | 147 % of hCG | B9
99 % of hCG | – | B10
– | 444 % of hCG | B11
308 % of hCG | – | B12
43 % of hCG | – | B13
168 % of hCG | – | B14
– | 91 % of hCG | B15
– | 23 % of hCG | B16
– | 74 % of hCG | B17
191 % of hCG | – | B18
– | 38 % of hCG | B19
– | 42 % of hCG | B20
– | 103 % of hCG | B21
13 % of hCG | – | B22
1 % of hCG | – | B23
– | 216 % of hCG | B24
– | 65 % of hCG | B25
– | 66 % of hCG | B26
– | 56 % of hCG | B27
– | 56 % of hCG | B28

target: T1, rat lutropin receptor (LHR); experiment: LHR binding and signaling assays

binding result | Binder
no binding | B29
no binding | B30

target: T1, rat lutropin receptor (LHR); experiment: inhibition of 125I-hCG binding to CHO cells with rat LHR; from IC50; native β-subunit analog

Receptor-Binding potency (percent hCG) | Binder
84 % of hCG | B31
4.3 % of hCG | B1
149 % of hCG | B32
70 % of hCG | B3
66 % of hCG | B5
83 % of hCG | B33
35 % of hCG | B8
60 % of hCG | B9
95 % of hCG | B11
93 % of hCG | B15
8.7 % of hCG | B16
141 % of hCG | B17
100 % of hCG | B19
58 % of hCG | B20
113 % of hCG | B21
81 % of hCG | B24
30 % of hCG | B25
68 % of hCG | B26
38 % of hCG | B27
41 % of hCG | B28

target: T1, rat lutropin receptor (LHR); experiment: inhibition of 125I-hCG binding to CHO cells with rat LHR; from IC50; acid-stable hCGβ-S138C analog

Receptor-Binding potency (percent hCG) | Binder
327 % of hCG | B2
2.2 % of hCG | B34
50 % of hCG | B4
4.1 % of hCG | B6
66 % of hCG | B7
71 % of hCG | B10
17 % of hCG | B13
223 % of hCG | B14
89 % of hCG | B35
250 % of hCG | B18
28 % of hCG | B22
3.1 % of hCG | B23
61 % of hCG | B36
